Test results published in patent US20260125457A1 (Janssen / Centocor, published 2026).

T1: CALRdel52 (mutant calreticulin, 52 base pair deletion, Type 1) expressed with MPL on engineered cancer cells (UniProt P27797 18-417)
T1 construct: whole, on cells; On the cell surface in complex with MPL; also called OCI-M2 MPL CALRdel52
T1 sequence (looked up): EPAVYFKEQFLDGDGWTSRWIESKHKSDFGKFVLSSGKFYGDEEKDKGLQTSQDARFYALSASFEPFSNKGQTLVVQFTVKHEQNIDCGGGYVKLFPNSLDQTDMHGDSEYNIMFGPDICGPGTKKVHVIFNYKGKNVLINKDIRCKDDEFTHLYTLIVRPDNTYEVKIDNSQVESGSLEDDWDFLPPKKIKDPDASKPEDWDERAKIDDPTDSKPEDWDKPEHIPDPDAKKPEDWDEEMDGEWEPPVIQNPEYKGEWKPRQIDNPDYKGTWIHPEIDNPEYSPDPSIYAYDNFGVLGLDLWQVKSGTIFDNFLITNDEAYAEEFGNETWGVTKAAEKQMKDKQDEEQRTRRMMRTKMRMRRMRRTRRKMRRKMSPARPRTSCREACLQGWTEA

T2: wild-type calreticulin (CALRwt) expressed with MPL in engineered cancer cells (UniProt P27797 18-417, limits assumed)
T2 construct: whole, on cells; also called OCI-M2 MPL CALRwt
T2 sequence (looked up): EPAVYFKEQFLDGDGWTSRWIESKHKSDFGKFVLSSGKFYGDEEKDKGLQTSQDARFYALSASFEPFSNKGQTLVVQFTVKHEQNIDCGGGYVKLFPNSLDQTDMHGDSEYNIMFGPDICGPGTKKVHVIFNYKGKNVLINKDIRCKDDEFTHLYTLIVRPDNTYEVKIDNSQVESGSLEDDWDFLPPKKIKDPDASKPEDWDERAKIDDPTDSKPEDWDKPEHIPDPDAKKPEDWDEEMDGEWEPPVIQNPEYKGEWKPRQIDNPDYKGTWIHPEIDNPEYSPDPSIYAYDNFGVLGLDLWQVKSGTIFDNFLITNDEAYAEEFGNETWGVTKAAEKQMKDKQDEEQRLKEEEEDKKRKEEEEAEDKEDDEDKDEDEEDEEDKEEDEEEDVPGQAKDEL

T3: CALRins5 (mutant calreticulin, 5 base pair insertion, Type 2) expressed with MPL on engineered cancer cells (UniProt P27797 18-417)
T3 construct: whole, on cells; On the cell surface in complex with MPL; also called OCI-M2 MPL CALRins5
T3 sequence (looked up): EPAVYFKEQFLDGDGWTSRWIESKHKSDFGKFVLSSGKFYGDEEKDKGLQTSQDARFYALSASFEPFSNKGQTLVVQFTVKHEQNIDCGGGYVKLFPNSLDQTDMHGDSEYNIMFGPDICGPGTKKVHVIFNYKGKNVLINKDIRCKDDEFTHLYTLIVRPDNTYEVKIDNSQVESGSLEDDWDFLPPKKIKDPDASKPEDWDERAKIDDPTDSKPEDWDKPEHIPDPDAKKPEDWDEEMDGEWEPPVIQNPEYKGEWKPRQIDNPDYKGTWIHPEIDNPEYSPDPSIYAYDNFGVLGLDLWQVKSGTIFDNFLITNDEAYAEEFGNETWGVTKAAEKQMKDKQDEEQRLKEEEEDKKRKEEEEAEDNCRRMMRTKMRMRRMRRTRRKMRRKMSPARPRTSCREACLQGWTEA

B1: C3CRB127 CALRmut x CD3 bispecific antibody (bispecific antibody, human IgG1, kappa, L234A L235A)
heavy 1: QVQLVQSGAEVKKPGASVKVSCKASGFSLSSYAMSWVRQAPGQGLEWMGVIDSGGTTYYAQKFQGRVTMTRDTSTSTVYMELSSLRSEDTAVYYCARESYAGYDYYGHPIPYGMEPWGQGTLVTVSSASTKGPSVFPLAPSSKSTSGGTAALGCLVKDYFPEPVTVSWNSGALTSGVHTFPAVLQSSGLYSLSSVVTVPSSSLGTQTYICNVNHKPSNTKVDKKVEPKSCGGGGSGGGGSEVQLVESGGGLVKPGGSLRLSCAASGFTFSRYNMNWVRQAPGCGLEWVSSISTSSNYIYYADSVKGRFTFSRDNAKNSLDLQMSGLRAEDTAIYYCTRGWGPFDYWGQGTLVTVSSGGGSGGSGGCPPCGGSGGDIQMTQSPSSLSASVGDRVTITCRARQSIGTAIHWYQQKPGKAPKLLIKYASESISGVPSRFSGSGSGTDFTLTISSLQPEDFATYYCQQSGSWPYTFGCGTKLEIKEPKSSDKTHTCPPCPAPEAAGGPSVFLFPPKPKDTLMISRTPEVTCVVVSVSHEDPEVKFNWYVDGVEVHNAKTKPREEQYNSTYRVVSVLTVLHQDWLNGKEYKCKVSNKALPAPIEKTISKAKGQPREPQVYTLPPSREEMTKNQVSLWCLVKGFYPSDIAVEWESNGQPENNYKTTPPVLDSDGSFFLYSKLTVDKSRWQQGNVFSCSVMHEALHNHYTQKSLSLSPGK
heavy 2: QVQLVQSGAEVKKPGASVKVSCKASGFSLSSYAMSWVRQAPGQGLEWMGVIDSGGTTYYAQKFQGRVTMTRDTSTSTVYMELSSLRSEDTAVYYCARESYAGYDYYGHPIPYGMEPWGQGTLVTVSSASTKGPSVFPLAPSSKSTSGGTAALGCLVKDYFPEPVTVSWNSGALTSGVHTFPAVLQSSGLYSLSSVVTVPSSSLGTQTYICNVNHKPSNTKVDKKVEPKSCDKTHTCPPCPAPEAAGGPSVFLFPPKPKDTLMISRTPEVTCVVVSVSHEDPEVKFNWYVDGVEVHNAKTKPREEQYNSTYRVVSVLTVLHQDWLNGKEYKCKVSNKALPAPIEKTISKAKGQPREPQVYTLPPSREEMTKNQVSLSCAVKGFYPSDIAVEWESNGQPENNYKTTPPVLDSDGSFFLVSKLTVDKSRWQQGNVFSCSVMHEALHNRFTQKSLSLSPGK
light: DIQMTQSPSTLSASVGDRVTITCQASQSLYNNKNLAWYQQKPGKAPKLLIYYASALASGVPSRFSGSGSGTEFTLTISSLQPDDFATYYCQGEFNCNSADCNSFGGGTKVEIKRTVAAPSVFIFPPSDEQLKSGTASVVCLLNNFYPREAKVQWKVDNALQSGNSQESVTEQDSKDSTYSLSSTLTLSKADYEKHKVYACEVTHQGLSSPVTKSFNRGEC
notes: Chain A heavy: CALRB1114 Fab heavy part, CD3 spFv (HL), Fc; Chain B heavy: CALRB1114
B2: C3CRB136 CALRmut x CD3 bispecific antibody (bispecific antibody, human IgG1, kappa, L234A L235A)
scFv: DIQMTQSPSSLSASVGDRVTITCRARQSIGTAIHWYQQKPGCAPKLLIKYASESISGVPSRFSGSGSGTDFTLTISSLQPEDFATYYCQQSGSWPYTFGQGTKLEIKGGGSGGSGGCPPCGGSGGEVQLVESGGGLVKPGGSLRLSCAASGFTFSRYNMNWVRQAPGKGLEWVSSISTSSNYIYYADSVKGRFTFSRDNAKNSLDLQMSGLRAEDTAIYYCTRGWGPFDYWGCGTLVTVSSEPKSSDKTHTCPPCPAPEAAGGPSVFLFPPKPKDTLMISRTPEVTCVVVSVSHEDPEVKFNWYVDGVEVHNAKTKPREEQYNSTYRVVSVLTVLHQDWLNGKEYKCKVSNKALPAPIEKTISKAKGQPREPQVYTLPPSREEMTKNQVSLWCLVKGFYPSDIAVEWESNGQPENNYKTTPPVLDSDGSFFLYSKLTVDKSRWQQGNVFSCSVMHEALHNHYTQKSLSLSPGK
heavy: QVQLVQSGAEVKKPGASVKVSCKASGFSLSSYAMSWVRQAPGQGLEWMGVIDSGGTTYYAQKFQGRVTMTRDTSTSTVYMELSSLRSEDTAVYYCARESYAGYDYYGHPIPYGMEPWGQGTLVTVSSASTKGPSVFPLAPSSKSTSGGTAALGCLVKDYFPEPVTVSWNSGALTSGVHTFPAVLQSSGLYSLSSVVTVPSSSLGTQTYICNVNHKPSNTKVDKKVEPKSCGGGGSGGGGSQVQLVQSGAEVKKPGASVKVSCKASGFSLSSYAMSWVRQAPGQGLEWMGVIDSGGTTYYAQKFQGRVTMTRDTSTSTVYMELSSLRSEDTAVYYCARESYAGYDYYGHPIPYGMEPWGQGTLVTVSSASTKGPSVFPLAPSSKSTSGGTAALGCLVKDYFPEPVTVSWNSGALTSGVHTFPAVLQSSGLYSLSSVVTVPSSSLGTQTYICNVNHKPSNTKVDKKVEPKSCDKTHTCPPCPAPEAAGGPSVFLFPPKPKDTLMISRTPEVTCVVVSVSHEDPEVKFNWYVDGVEVHNAKTKPREEQYNSTYRVVSVLTVLHQDWLNGKEYKCKVSNKALPAPIEKTISKAKGQPREPQVYTLPPSREEMTKNQVSLSCAVKGFYPSDIAVEWESNGQPENNYKTTPPVLDSDGSFFLVSKLTVDKSRWQQGNVFSCSVMHEALHNRFTQKSLSLSPGK
light: B1 light
notes: Chain B heavy: two CALRB1114 Fab heavy parts in tandem, Fc

Key:
[1] = target: T1, CALRdel52 (mutant calreticulin, 52 base …); assay: flow cytometry on OCI-M2 MPL CALRdel52 cells, 1 h at 37 C, AF647 secondary antibody, Geometric Mean
Description: FIGS. 21A-21F depict binding of different CALRmutxCD3 bispecific antibodies to CALRmut-negative or CALRmut-positive cells. Flow cytometry was used to evaluate CALRmutxCD3 binding to CALRmut-negative and CALRmut-positive cancer cells in vitro. CALRmutxCD3 antibodies were tested on a panel of cell lines, engineered to express MPL and CALRmut, after 1 hour 37° C. incubation, with subsequent incubation with secondary AF647-labeled antibody. Geometric mean fluorescence intensity of AF647 was measured to determine antibody binding.

[2] = target: T4, CD3 on primary human pan T cells (human, UniProt P07766 23-207); assay: flow cytometry on pan CD3 T cells, 1 h at 37 C, AF647 secondary antibody, Geometric Mean
T4 construct: whole, on cells; also called CD3e; CD3ε
T4 sequence (P07766 23-207): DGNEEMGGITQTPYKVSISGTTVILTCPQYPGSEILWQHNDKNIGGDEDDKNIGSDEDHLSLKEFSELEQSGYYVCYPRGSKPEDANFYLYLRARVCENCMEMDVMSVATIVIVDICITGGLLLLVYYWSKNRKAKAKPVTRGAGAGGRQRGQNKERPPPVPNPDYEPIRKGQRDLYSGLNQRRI
Description: FIG. 22 depicts binding of different CALRmutxCD3 bispecific antibodies to pan CD3 T cells. Flow cytometry was used to evaluate CALRmutxCD3 binding to pan CD3 T cells in vitro, by 1 hour 37° C. incubation, with subsequent incubation with secondary AF647-labeled antibody. Geometric mean fluorescence intensity of AF647 was measured to determine antibody binding.
Flow cytometry was used to evaluate the CD3 arm binding of CALRmutxCD3 antibodies listed in Table 21 to CD3+ pan T cells from healthy human donor. CALRmutxCD3 were tested after 1 hour 37° C. incubation with pan T cells.

[3] = target: T2, wild-type calreticulin (CALRwt) …; assay: flow cytometry, ELF-153 and OCI-M2 MPL CALRwt cells
[4] = target: T2, wild-type calreticulin (CALRwt) …; assay: flow cytometry, OCI-M2 and ELF-153 MPL CALRwt cells
[5] = target: T3, CALRins5 (mutant calreticulin, 5 base …); assay: flow cytometry, OCI-M2 and ELF-153 MPL CALRins5 cells
[6] = target: T1, CALRdel52 (mutant calreticulin, 52 base …); assay: flow cytometry, OCI-M2 and ELF-153 MPL CALRdel52 cells

| Binder | EC50 (read off the curve) [1] [nM] | EC50 (read off the curve) [2] [nM] | binding result [3] | binding result [4] | binding result [5] | binding result [6] |
| --- | --- | --- | --- | --- | --- | --- |
| B1 | ~2 | ~5 | no binding |  |  |  |
| B2 |  |  |  | no binding | binds | binds |
